Measured values published in article PMC10137048.

Target: amyloid beta (Aβ) peptide Aβ42

- stoichiometry N: < 4
Substance: amyloid beta (Aβ) peptide Aβ42
